The values that follow come from patent US20150132305A1 (ADHERON THERAPEUTICS, published 2015).

The target of assay [1] is T1, Cad-7 37-mer peptide linked to BSA (UniProt Q9ULB5 48-84, limits assumed, linked to BSA).
T1 construct: also called Cad-7 antigen; Cad-7 peptide
T1 peptide (looked up): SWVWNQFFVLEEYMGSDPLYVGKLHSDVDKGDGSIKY
The assay can be described thus: ELISA, BSA-coupled 37-mer cadherin peptide coated at 500 ng/ml, A450. How it is done: (§1) REACTI-BIND™ plates (ThermoScientific) were coated with 500 ng/ml of the BSA coupled cadherin 37-mer peptide (NE peptide) corresponding to Cadherins-7, -8, -9, -11, -18, -20, and -24 in 0.05% TWEEN® detergent (EMD, product code 9480) in PBS (pH 7.2) (Gibco(Invitrogen), #20012) at 100 μl volume/well for overnight at 4° C. The peptide containing solution was removed from the well and the plate blocked with a 2% bovine serum albumin (BSA) in PBS, 200 μl volume/well, for 2 h at 22° C. The plate was then washed twice with 200 μl/well of PBS-TWEEN® detergent 0.05% at 22° C. and blotted dry. A dilution series from 5 μg/ml to 8 ng/ml in a volume of 100 μl/well of each the humanized anti-Cad-11 antibodies were incubated in the petide coated wells and incubated at 22° C. for 1 hr. Antibody solution was removed from the wells and the plate washed twice with 200 μl/well of 0.05% TWEEN® detergent-PBS at 22° C. and blotted dry. The goat-anti mouse IgG (Pierce #31432) was added to each well to plate at a 1:1000 dilution, 100 μl/well and incubate at 22° C. for 30 min. The secondary antibody solution was removed and the plate washed twice with 200 μl/well of 0.05% TWEEN® detergent-PBS at 22° C. and blotted dry. The reaction was developed by adding 100 μl/well tetramethylbenzidine (TMB) reagent IgG (Pierce #34022, 1 step Turbo TMB-ELISA) to plate and developed at 22° C. for 5 min.
(In general: An ELISA detects its analyte on a solid surface through an enzyme-linked reagent.)

For assay [2], the target named is T2, Cad-9 37-mer peptide linked to BSA (UniProt Q9ULB4 54-90, limits assumed, linked to BSA).
T2 construct: also called Cad-9 antigen; Cad-9 peptide
T2 peptide (looked up): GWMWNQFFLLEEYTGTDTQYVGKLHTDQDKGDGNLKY
The assay is described as above. How it is done:
as §1

The target of assay [3] is T3, recombinant his-tagged human Cad-11 (R&D Systems) (human, UniProt P55287 54-617).
T3 construct: bought; also called rhCad-11; recombinant human Cad-11; not shown: his tag
T3 sequence: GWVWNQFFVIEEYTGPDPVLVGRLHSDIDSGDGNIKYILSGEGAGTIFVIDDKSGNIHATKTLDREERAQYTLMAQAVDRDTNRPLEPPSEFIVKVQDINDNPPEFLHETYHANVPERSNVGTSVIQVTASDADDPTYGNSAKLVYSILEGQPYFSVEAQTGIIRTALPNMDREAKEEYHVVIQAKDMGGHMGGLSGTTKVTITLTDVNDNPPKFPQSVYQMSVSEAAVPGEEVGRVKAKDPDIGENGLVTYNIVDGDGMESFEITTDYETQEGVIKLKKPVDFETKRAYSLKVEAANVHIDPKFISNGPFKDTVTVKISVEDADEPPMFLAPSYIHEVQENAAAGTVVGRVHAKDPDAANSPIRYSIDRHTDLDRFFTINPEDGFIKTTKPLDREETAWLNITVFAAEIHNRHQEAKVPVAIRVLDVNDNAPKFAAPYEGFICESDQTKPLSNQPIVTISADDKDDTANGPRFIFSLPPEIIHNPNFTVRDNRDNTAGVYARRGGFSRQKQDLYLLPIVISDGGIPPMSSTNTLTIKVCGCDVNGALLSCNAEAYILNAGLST
In words: SPR, rhCad-11 immobilized, SDP051 as analyte, 2-state reaction model; kd1. On the procedure:
(§2) To determine the affinity of SDP051 for recombinant his-tagged human Cad-11, rhCad-11 (R&D Systems) was immobilized to the chip at a single concentration, high resolution kinetics were determined for SDP051, and a 2-state reaction binding model was successfully fitted to the kinetic data.
(§3) Kinetic data were obtained at a flow rate of 40 μL/min to minimize any potential mass transfer effects. An analyte concentration series ranging from 12.5 nM to 0.195 nM was prepared by serial dilution. Two repeats of the blank (no mAb) and the 3.125 nM (first and last cycle) concentration of the analyte were programmed into the kinetic runs in order to check the stability of both the surface and analyte over the kinetic cycles. The SDP051 was injected over the Fcs for 360 seconds, long enough to observe the curvature in association phase.

For assay [4], the target named is T3, recombinant his-tagged human Cad-11 …. The assay can be described thus: SPR, rhCad-11 immobilized, SDP051 as analyte, 2-state reaction model. On the procedure: as §2, §3
On the technique in general: Surface plasmon resonance follows binding to a sensor surface in real time, without labels.

Assay [5] has the same target. In words: SPR, rhCad-11 immobilized, SDP051 as analyte, 2-state reaction model; ka1. On the procedure:
as §2, §3

Assay [6] addresses T4, recombinant Cad-11 EC1 human IgG1 fusion protein (R&D Systems Cat. No. 1790-CA-050) (human, UniProt P55287 54-617, limits assumed).
T4 construct: bought; also called recombinant human Cad-11 EC1; recombinant human Cad-11 fusion protein; not shown: human IgG1 part
T4 sequence: T3 sequence
The assay can be described thus: competition ELISA on coated recombinant human Cad-11 EC1 fusion protein against biotinylated SYN0012 (0.1 µg/ml). How it is done: (§4) The binding of the purified humanized composite variant antibodies (SDP011 to SDP151) to a recombinant Cad-11 EC1 human IgG1 fusion protein was assessed in a competition binding ELISA. A dilution series from 5 μg/ml to 0.0022 μg/ml of the humanized or control (SYN0012/H1M1) antibodies was premixed with a constant concentration of biotinylated murine anti-Cad-11 antibody, SYN0012/H1M1 (0.1 μg/ml, final concentration), before incubating for 1 hour at room temperature on a NUNC-IIMMUNO™ MAXISORP™ 96 well flat bottom microtitre plate (Fisher Cat. No. DIS-971-030J) pre-coated with 0.25 μg/ml recombinant human Cad-11 EC1 (R&D Systems Cat. No. 1790-CA-050) diluted in PBS. The binding of the biotinylated mAb was detected with streptavidin-HRP (Sigma Cat. No. 55512) and tetramethylbenzidine (TMB) substrate (Invitrogen Cat. No. 00-2023).
(§5) All of the humanized anti-Cad-11 antibodies efficiently competed with SYN0012 for binding to the Cad-11 fusion protein (FIGS. 38A to C). […] The curves were used to calculate IC50 values for each antibody and these were normalized to the IC50 of SYN0012, which was included on each ELISA plate so that comparisons between plates could be made (Table 3). The expression levels of each cell line and the calculated isoelectric point (pI) of each antibody are also shown (Table 3).

Assay [7] deals with T4, recombinant Cad-11 EC1 human IgG1 …. In words: competition ELISA against biotinylated SYN0012/H1M1 (competitor) on coated fusion protein; text says values are normalised to the IC50 of SYN0012. How it is done:
as §4, §5
The relative IC50 was calculated by dividing the value for the test antibody by that of SYN0012. Antibody expression levels given are for static cultures in T flasks. PI are calculated.

B1: SDP051 humanized anti-Cad-11 EC1 antibody (Vκ1/VH5) (antibody, IgG4, V domains shown)
VH: EVQLVQSGAEVKKPGASVKVSCKASGYSFTGYFMNWVRQAPGQGLEWIGRINPYTGDTFYNQKFKGRVTITVDKSTSTAYMELSSLRSEDTAVYYCGRLGSRYWYFDVWGQGTTVTVSS
VL: DVLMTQTPLSSPVTLGQPASISCRSSQSIIHSNGNTYLEWYLQKPGQSPQLLIYKVSNRFSGVPDRFTGSGSGTDFTLKISRVEAEDVGVYYCFQGSHVPWTFGQGTKLEIK
notes: humanized IgG4 (S241P), kappa
Turning to B1, the binding result in assay [1] and in assay [2] was “no binding (tested: 5000 ng/ml)” each time. In addition, the koff in assay [3] is 0.0043 s⁻¹. In addition, the Kd in assay [4] was found to be 379 pM. Also, the on-rate (kon) in assay [5] was 613000 M⁻¹ s⁻¹. In addition, the “IC50 (read off the curve)” value in assay [6] was around 0.2 µg/mL. The IC50 in assay [7] worked out at 0.99 µg/mL.

For orientation: koff means a measure of how fast the partners let go of each other. Broadly, the Kd is a measure of binding affinity in units of concentration. As usually defined, the kon is a measure of how fast the partners come together. As usually defined, the IC50 is the concentration needed to halve the response being measured.
